± gives the standard deviation.
Assay: protein stability index of a GFP-peptide fusion (GPS, HEK-293T) (PSI 1-6); higher = more stable
[1] = treatment: DMSO, c terminus: a fixed tail appended
[2] = treatment: MLN4924 1 uM, 8 h, c terminus: a fixed tail appended
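Further: 24-mer peptide tiles fused after GFP, lentivirally expressed, FACS-sorted into six equal bins by GFP/DsRed ratio, decoded by Illumina sequencing, PSI is the read-weighted mean bin number.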

Sequence: YMHVGSCQHLSSSAEELRKARSNS [KCNA3]
- protein stability index [1]: 3.95 ± 0.11
- protein stability index [2]: 4.37 ± 0.22

Sequence: AHFYGVKLEGKVPMHKLFLEMLEA [ESRRA]
- protein stability index [1]: 2.46 ± 0.51
- protein stability index [2]: 2.12 ± 0.034

Sequence: ELQGLDYCKPTRLDLLLDMPPVSY [SPSB1]
- protein stability index [1]: 2.31 ± 0.14
- protein stability index [2]: 2.38 ± 0.11

Sequence: VPCYSKTQKLSKIETLRLAKNYIW [NEUROD6]
- protein stability index [1]: 2.43 ± 0.34
- protein stability index [2]: 2.81 ± 0.58

Sequence: MRHLSTGTMTGLAIQYALNIAFSE [MATN2]
- protein stability index [1]: 3.08 ± 0.49
- protein stability index [2]: 3.33 ± 0.25

Sequence: NRDSYFYAAIVAVVAVHVVLALFV [VMA21]
- protein stability index [1]: 2.3 ± 0.16
- protein stability index [2]: 2 ± 0.2

Sequence: DNARLAVDDFRLKYENELALRQSV [KRT13]
- protein stability index [1]: 3.92 ± 0.14
- protein stability index [2]: 3.86 ± 0.18

Sequence: CFKNWDGSPVSSWILLAESNSADD [OAS1]
- protein stability index [1]: 3.04 ± 0.24
- protein stability index [2]: 3.38 ± 0.4

Sequence: QCPMRVQKEVAGFVLNRLQYAIIS [CRYL1]
- protein stability index [1]: 3 ± 0.78
- protein stability index [2]: 2.38 ± 1

Sequence: TSRNLIGGADIIVIKYNVNDKFSF [RHOBTB3]
- protein stability index [1]: 2.83 ± 1.2
- protein stability index [2]: 2.68 ± 1.6

Sequence: KDKENKFLCVLMSDWFNFHGHMCI [CLK3]
- protein stability index [1]: 3.06 ± 0.31
- protein stability index [2]: 3.08 ± 0.53

Sequence: FLPEKKDTGVFAVVNSHSLSLLGK [SLC22A15]
- protein stability index [1]: 2.57 ± 0.39
- protein stability index [2]: 2.83 ± 0.52

Sequence: RSGHTQTDYINASFMDGYKQKNAY [PTPN9]
- protein stability index [1]: 3.52 ± 0.2
- protein stability index [2]: 3.61 ± 0.18

Sequence: PAATFGADDLVLTLSNPQMSLEGT [ELF3]
- protein stability index [1]: 4.24 ± 0.3
- protein stability index [2]: 4.32 ± 0.23

Sequence: NSQALLLHSSILTCTLLLLYSLAP [MFSD9]
- protein stability index [1]: 3.23 ± 0.12
- protein stability index [2]: 3.08 ± 0.52

Sequence: AMLDEISLMDLAIEEGFNPVQASQ [NFE2L1]
- protein stability index [1]: 3.53 ± 0.39
- protein stability index [2]: 3.66 ± 0.2

Sequence: KRITASEALKHPWICQRSTVASMM [CAMK2D]
- protein stability index [1]: 2.61 ± 0.05
- protein stability index [2]: 2.67 ± 0.27

Sequence: MWYPEIKHFCPRAPVILVGCQLDL [RHOBTB2]
- protein stability index [1]: 3.24 ± 0.81
- protein stability index [2]: 2.77 ± 0.28

Sequence: AFQHTPTSITLTASRVSKVNDKRR [KMT2E]
- protein stability index [1]: 3.74 ± 0.27
- protein stability index [2]: 4.11 ± 0.47

Sequence: VGDIVSFMHSFEEKYGRAHPVFYQ [FAF2]
- protein stability index [1]: 2.04 ± 0.34
- protein stability index [2]: 2.17 ± 0.22

Sequence: DQFLEDVRLQERTSGGLLSEAPNE [NOP53]
- protein stability index [1]: 5.23 ± 0.13
- protein stability index [2]: 5.38 ± 0.31

Sequence: QKRYQDWFQRQYLSTPDSQSLRCD [INTS3]
- protein stability index [1]: 2.96 ± 0.1
- protein stability index [2]: 3.13 ± 0.17

Sequence: GFGDEDTGLELIAEESNPPLQDFP [MIA2]
- protein stability index [1]: 5.4 ± 0.34
- protein stability index [2]: 5.23 ± 0.069

Sequence: NEHKSCEEKSVKNTSIRVADFGSA [CLK3]
- protein stability index [1]: 4.89 ± 0.16
- protein stability index [2]: 5.03 ± 0.14

Sequence: RKEGIVKLKPHEEPLRSEILSGKF [PTPN9]
- protein stability index [1]: 4.16 ± 0.13
- protein stability index [2]: 4.08 ± 0.14

Sequence: MIEDNKENKDHSLERGRASLIFSL [TPH1]
- protein stability index [1]: 3.25 ± 0.36
- protein stability index [2]: 3.36 ± 0.18

Sequence: EHRHLNPDTELKRYFGARAILGEQ [TCF25]
- protein stability index [1]: 3.46 ± 0.32
- protein stability index [2]: 3.47 ± 0.54

Sequence: QSEERKRIDELIESGKEEGMKIDL [KMT5A]
- protein stability index [1]: 5.583 ± 0.004
- protein stability index [2]: 5.5 ± 0.13

Sequence: RDPFECNMCGYHSQDRYEFSSHIT [IKZF1]
- protein stability index [1]: 2.33 ± 0.4
- protein stability index [2]: 2.33 ± 0.59

Sequence: APGPSRIADYLLLPLAEREHVSRA [TRIB1]
- protein stability index [1]: 3 ± 0.46
- protein stability index [2]: 3.38 ± 0.77

Sequence: QAEKRAAEKVSEARKRKNRRLKQA [ATP6V1G1]
- protein stability index [1]: 5.47 ± 0.51
- protein stability index [2]: 5.33 ± 0.41

Sequence: TLSLKQTILDKEEKQRRNVAKNY [TTC32]
- protein stability index (treatment: DMSO, c terminus: native): 4.27 ± 0.36
- protein stability index (treatment: MLN4924 1 uM, 8 h, c terminus: native): 4.29 ± 0.54

Sequence: HQKLEREARICRLLKHPNIVRLHD [CAMK2D]
- protein stability index [1]: 2.51 ± 0.22
- protein stability index [2]: 2.9 ± 0.46

Sequence: RASGEHVTDEEIESLMKDGDKNND [TNNC2]
- protein stability index [1]: 5.66 ± 0.12
- protein stability index [2]: 5.68 ± 0.2

Sequence: QLYGDAPGEVVPSGESGLRRRGSD [TMEM40]
- protein stability index [1]: 5.13 ± 0.18
- protein stability index [2]: 5.19 ± 0.25

Sequence: MRGFKGDRGPKGEKGEKGDRAGDA [SCARA5]
- protein stability index [1]: 5.41 ± 0.25
- protein stability index [2]: 5.44 ± 0.44

Sequence: WFLSKTEELNKEVASNSELVQSSR [KRT16]
- protein stability index [1]: 3.86 ± 0.39
- protein stability index [2]: 3.96 ± 0.17

Sequence: GLKPGPEDGPGKEEAPELDEAELD [SERTAD1]
- protein stability index [1]: 5.67 ± 0.34
- protein stability index [2]: 5.83 ± 0.064

Sequence: KWMERYLRDKTVMIIVAISPKYKQ [TRAF3IP2]
- protein stability index [1]: 2.65 ± 0.97
- protein stability index [2]: 2.44 ± 0.34

Sequence: ERVALANRKRECGNAHYQRADFVL [FKBP8]
- protein stability index [1]: 2.98 ± 0.27
- protein stability index [2]: 2.75 ± 0.12

Sequence: ALSTERELFAWGRGDSGRLGLGTR [NEK8]
- protein stability index [1]: 3.56 ± 0.17
- protein stability index [2]: 3.46 ± 0.42

Sequence: EIDRSVENTLLNSQMVSTDNSLSS [MIA2]
- protein stability index [1]: 4.18 ± 0.35
- protein stability index [2]: 4.67 ± 0.23

Sequence: DAFPVHRVMMASASDYFKAMFTGG [KLHL13]
- protein stability index [1]: 2.21 ± 0.38
- protein stability index [2]: 2.26 ± 0.23

Sequence: MWDTKTLGLRQHHCRKCGQAVCGK [WDFY1]
- protein stability index [1]: 3.21 ± 0.25
- protein stability index [2]: 3.4 ± 0.27

Source: the supplement of paper PMC10567573
